Values joined by “and” are separate entries in the source; they are usually repeats but may differ in a detail not shown here. Identical values can stand only once.

As a reminder, the EC50 is the concentration needed to bring the measured effect to its halfway point. One may read the Kd as the constant that tells how readily two partners part at equilibrium. What is called koff is the first-order rate constant of dissociation. The term kon denotes the rate constant with which the complex forms.

Test [1] concerns the target T1, human LAIR1 on cells (human, UniProt Q6GTX8 22-287).
T1 construct: also called hLAIR1; Jurkat-hLAIR1+
T1 sequence: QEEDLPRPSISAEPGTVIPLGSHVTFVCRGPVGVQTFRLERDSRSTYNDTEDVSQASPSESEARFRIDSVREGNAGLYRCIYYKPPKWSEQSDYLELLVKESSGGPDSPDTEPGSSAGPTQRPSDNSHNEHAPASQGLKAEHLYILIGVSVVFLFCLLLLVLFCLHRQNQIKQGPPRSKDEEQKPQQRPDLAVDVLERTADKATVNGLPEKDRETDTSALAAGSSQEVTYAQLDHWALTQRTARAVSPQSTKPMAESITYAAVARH
Put plainly: in vivo receptor occupancy by FACS on splenocytes, CD4 T cells; fit table; log10 of the dose, unit not given.

Test [2] concerns the target T1, human LAIR1 on cells. As to the kind of experiment: flow cytometry, Jurkat-hLAIR1+ cells. As to the method: (§1) The anti-human LAIR1 antibodies were evaluated for binding to human and cynomolgus monkey (cyno) LAIR1 engineered cell lines and primary human T cells that endogenously express LAIR1. Jurkat-hLAIR1+ (Jurkat cell overexpressing human LAIR1), Jurkat-LAIR1ko (Jurkat cell knocking out human LAIR1), Jurkat-cyLAIR1+ cells (Jurkat LAIR1ko cell expressing cyno LAIR1), and primary human T cells were incubated with the anti-human LAIR1 test antibodies. […] Cells were then washed and incubated with anti-human IgG Alexa Fluor 647 secondary antibody for 20 minutes at 4° C. Cells were then washed and antibody binding was evaluated by flow cytometry. For primary human T cells, cells were also stained for CD4 and CD8 to delineate CD4+ and CD8+ T cells.
For orientation: Flow cytometry measures light scatter and fluorescence of single cells or particles in a stream.

The target in test [3] is cynomolgus monkey LAIR1 on cells (cynomolgus monkey). Put plainly: cell-based or functional assay.
The target of test [4] is T1, human LAIR1 on cells. Put plainly: cell-based or functional assay.
The target of test [5] is T1, human LAIR1 on cells. As to the kind of experiment: in vivo receptor occupancy by FACS on splenocytes, Treg; fit table; log10 of the dose, unit not given.
The target of test [6] is T2, soluble, extracellular domain (ECD) of LAIR1 (human, UniProt Q6GTX8 22-163).
T2 construct: Produced recombinantly; also called LAIR1-ECD; LAIR1 ECD protein
T2 chain: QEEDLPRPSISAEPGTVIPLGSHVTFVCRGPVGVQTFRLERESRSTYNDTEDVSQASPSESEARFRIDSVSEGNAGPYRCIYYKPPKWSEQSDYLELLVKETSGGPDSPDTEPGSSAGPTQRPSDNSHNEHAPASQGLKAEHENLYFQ
As to the kind of experiment: SPR, Biacore 8K, 37 °C, antibody captured on anti-human kappa, LAIR1-ECD as analyte. As to the method:
Antibody binding affinity and kinetics were determined by surface plasmon resonance (SPR) using a Biacore 8K (Cytivia Life Sciences). Measurements were performed at 37° C. using HBS-EP+ as the running buffer (150 mM sodium chloride, 3 mM EDTA, 0.05% (w/v) surfactant P-20, and 10 mM HEPES, pH7.4). Binding experiments used the soluble, extracellular domain (ECD) of LAIR1 (SEQ ID NO: 17), produced recombinantly, which was diluted to working concentration in HBS-EP+ containing 0.1 mg/mL Bovine serum albumin. Goat anti-Human kappa (Southern Biotech) was immobilized on all eight flow cells of a CM4 sensor chip using an amine coupling kit.
Binding was evaluated using multiple analytical cycles. Each cycle is performed at a flow rate of 30 μL/minute and consists of the following steps: injection of antibody over a different flow cell (25 μL of antibody at 0.5 μg/mL at 10 μL/minute), injection of 75 μL (30 μL/min, for 150 seconds) of each LAIR1-ECD dilution (starting at 1 μM and using three-fold serial dilutions to 1.4 nM for each cycle, with one injection for each concentration) followed by a 1200 second delay for dissociation, and chip surface regeneration using three 15 μL injections (30 μL/min, for 30 seconds) of 10 mM glycine hydrochloride, pH1.7. Association and dissociation rates for each cycle were determined by fitting of the biosensor data to a simple 1:1 association model using the provided instrument analysis software to extract the kₒₙ and koff rate constants; the equilibrium binding constant KD was calculated using the relationship Kd=koff/kₒₙ.
On the technique in general: Surface plasmon resonance follows binding to a sensor surface in real time, without labels.

The target in test [7] is T1, human LAIR1 on cells. As to the kind of experiment: flow cytometry, primary human CD4+ T cells (endogenous LAIR1). As to the method: as §1
The target in test [8] is T1, human LAIR1 on cells. As to the kind of experiment: cell-based or functional assay. This is another data set of the same source.
Test [9] addresses T1, human LAIR1 on cells. As to the kind of experiment: cell-based or functional assay. The source holds these as a separate data set.
The target in test [10] is T3, cynomolgus monkey LAIR1 on cells (cynomolgus monkey).
T3 construct: whole, on cells; Jurkat LAIR1ko cells expressing cyno LAIR1; also called cyno LAIR1; cyLAIR1
As to the kind of experiment: flow cytometry, Jurkat-cyLAIR1+ cells. As to the method: as §1

For test [11], the target named is T1, human LAIR1 on cells. Put plainly: flow cytometry, primary human CD8+ T cells (endogenous LAIR1). As to the method: as §1
The target in test [12] is T1, human LAIR1 on cells. As to the kind of experiment: cell-based or functional assay. The source holds these as a separate data set.
The target of the next test is T4, Human C1q (human, UniProt P02745 23-245; P02746 28-253; P02747 29-245).
T4 construct: Bought (MS Biomedical); also called complement component C1q
T4 sequence (P02745 23-245 limits assumed, chain 1 of 3): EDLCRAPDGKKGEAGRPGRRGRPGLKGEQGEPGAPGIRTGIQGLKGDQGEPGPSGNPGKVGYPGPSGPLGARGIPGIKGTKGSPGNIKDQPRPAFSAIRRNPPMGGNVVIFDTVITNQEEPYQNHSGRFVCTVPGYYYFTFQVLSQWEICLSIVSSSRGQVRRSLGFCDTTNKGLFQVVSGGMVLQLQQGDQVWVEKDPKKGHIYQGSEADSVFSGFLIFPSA
T4 sequence (P02746 28-253 limits assumed, chain 2 of 3): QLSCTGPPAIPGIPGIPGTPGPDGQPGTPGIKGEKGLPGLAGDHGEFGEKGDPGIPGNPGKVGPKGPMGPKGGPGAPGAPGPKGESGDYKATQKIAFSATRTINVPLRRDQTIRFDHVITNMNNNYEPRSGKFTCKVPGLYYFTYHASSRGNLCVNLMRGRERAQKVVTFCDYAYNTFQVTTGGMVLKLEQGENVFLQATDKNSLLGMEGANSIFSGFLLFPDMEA
T4 sequence (P02747 29-245 limits assumed, chain 3 of 3): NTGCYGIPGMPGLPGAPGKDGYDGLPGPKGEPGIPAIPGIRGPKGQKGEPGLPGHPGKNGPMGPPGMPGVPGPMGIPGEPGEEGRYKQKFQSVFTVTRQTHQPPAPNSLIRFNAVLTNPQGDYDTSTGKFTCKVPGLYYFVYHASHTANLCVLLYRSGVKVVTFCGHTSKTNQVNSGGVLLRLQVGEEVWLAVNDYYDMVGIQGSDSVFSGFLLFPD
As to the kind of experiment: ELISA: antibody coated on the plate at the concentration shown, human C1q added at 10 ug/mL, detection with sheep anti-human C1q-HRP, OD450.

The target of another test is T5, LAIR2 (human, UniProt Q6ISS4 22-152).
T5 construct: also called human LAIR2
T5 sequence (looked up): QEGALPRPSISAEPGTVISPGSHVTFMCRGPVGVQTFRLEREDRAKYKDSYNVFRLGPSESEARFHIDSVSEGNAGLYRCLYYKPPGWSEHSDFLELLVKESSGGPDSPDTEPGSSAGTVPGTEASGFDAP
Put plainly: ELISA on hLAIR2, O.D.560 against antibody concentration.

The target in test [13] is T1, human LAIR1 on cells. As to the kind of experiment: in vivo receptor occupancy by FACS on splenocytes, CD8 T cells; fit table; log10 of the dose, unit not given. An excerpt: Human peripheral blood mononuclear cells (PBMCs) were engrafted into NSG mice where the human immune cells recognize the mouse as foreign and mount an immune response resulting in Graft versus Host Disease (GvHD). […] Blood was obtained on day 5 by retro-orbital sinus and day 8 by cardiac puncture and processed for analyses of serum cytokines (MSD human pro-inflammatory cytokine panel) and drug exposure (antigen capture ELISA).

Experimental for Human C1q: Testing was performed in duplicate wells. The plate was sealed and incubated overnight at 4° C. The coating reagent was removed from each well, and 200 μL/well of casein blocking reagent (Thermo) was added. The plate was sealed and incubated for 2 hours at room temperature (RT). Each well was washed 3 times with wash buffer (1×TBE with 0.05% Tween 20). One hundred microliters per well of Human C1q (MS Biomedical) at 10 μg/mL diluted in casein blocking reagent was added and incubated for 3 hours at RT. The plate was then washed three times with wash buffer before 100 μL/well of a 1:800 times dilution of Sheep anti-human C1q-HRP (Abcam #ab46191) in casein blocker was added and incubated for 1 hour at RT. The plate was washed 6 times with wash buffer, and 100 μL/well of TMB Substrate (Pierce) was added to each well and incubated for 7 minutes. […] Optical density was immediately measured using a colorimetric microplate reader set to 450 nm.

B1: mAb4 (antibody, human IgG4 S228P, kappa)
heavy: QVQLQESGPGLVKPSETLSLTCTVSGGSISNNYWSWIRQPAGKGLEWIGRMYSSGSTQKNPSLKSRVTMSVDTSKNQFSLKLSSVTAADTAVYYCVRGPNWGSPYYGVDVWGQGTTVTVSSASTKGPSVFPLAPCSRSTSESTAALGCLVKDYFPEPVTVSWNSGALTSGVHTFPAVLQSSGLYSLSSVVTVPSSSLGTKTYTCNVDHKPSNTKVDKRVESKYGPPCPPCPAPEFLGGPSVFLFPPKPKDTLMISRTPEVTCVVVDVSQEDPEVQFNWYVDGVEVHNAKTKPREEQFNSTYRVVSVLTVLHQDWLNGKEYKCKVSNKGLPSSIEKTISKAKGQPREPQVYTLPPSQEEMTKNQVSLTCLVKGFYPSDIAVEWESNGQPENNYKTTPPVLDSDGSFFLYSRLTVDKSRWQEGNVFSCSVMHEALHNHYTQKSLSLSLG
light: DIVMTQSPLSLPVTPGEPASISCRSSPSLLHSDGYNWLDWYLQKPGQSPQLLIYLGSNRASGVPDRFSGSGSGTDFTLKISRVEAEDVGVYYCMQAHQTPFTFGQGTKVEIKRTVAAPSVFIFPPSDEQLKSGTASVVCLLNNFYPREAKVQWKVDNALQSGNSQESVTEQDSKDSTYSLSSTLTLSKADYEKHKVYACEVTHQGLSSPVTKSFNRGEC
notes: also called anti-human LAIR1 mAb4; LAIR1 agonist antibody
Take B1: the “LogIC50 of % receptor occupancy, CD4 T cells” value with human LAIR1 on cells [1] is -0.933. For the same molecule, the EC50 with human LAIR1 on cells [2] is 0.0565 µg/mL; with human LAIR1 on cells [7] it was 0.0162 µg/mL; in test [10], 0.0893 µg/mL; in the test with human LAIR1 on cells [11], 0.0349 µg/mL. Moreover, the “Inhibition of NFAT Activity (% inhibition vs. no antibody), Jurkat-cyLAIR1+” value in test [3] stood at 65.5%. The “IC50 of antibody activity, Jurkat-hLAIR1+ NFAT” value (“IC50 of antibody activity” for short) with human LAIR1 on cells [4] came out at 6.66 ng/mL. The “Inhibition of NFAT Activity (% inhibition vs. no antibody), Jurkat-hLAIR1+” value in the test with human LAIR1 on cells [4] is 60.4%. The “LogIC50 of % receptor occupancy, Treg” value with human LAIR1 on cells [5] was -0.771. For the same molecule, in test [6], binding was characterised by a dissociation constant (Kd) of 0.291 nM. The off-rate (koff) in [6] amounted to 0.000317 s⁻¹. In addition, the kon in test [6] was 1.09e+06 M⁻¹ s⁻¹. In addition, the “Inhibition of IL-6 response at 8 ng/mL (% inhibition vs. no antibody), primary human B cells” value with human LAIR1 on cells [8] amounted to 42.7%. Besides, in the test with human LAIR1 on cells [9], the “Inhibition of IFN-γ response at 1 µg/mL (% inhibition vs. no antibody), primary human T cells” value amounted to 41.1%. In addition, in the test with human LAIR1 on cells [12], the “IC50 of inhibition of B cell IL-6 response to BCR stimulation” value was 0.0002 nM and 0.03 ng/mL. Besides, the “IC50 of inhibition of Jurkat-hLAIR1+ NFAT activation” value with human LAIR1 on cells [12] came to 0.045 nM. The binding result is listed as “no binding (tested: 10 ug/mL)” in the test with Human C1q and “no binding (tested: 10 ug/ml)” with LAIR2. In addition, the “LogIC50 of % receptor occupancy, CD8 T cells” value with human LAIR1 on cells [13] was -0.864.

B2: mAb2 (antibody, human IgG2, kappa)
heavy: QVQLQESGPGLVKPSETLSLTCTVSGGSISNNYWSWIRQPAGKGLEWIGRMYSSGSTQKNPSLKSRVTMSVDTSKNQFSLKLSSVTAADTAVYYCVRGPNWGSPYYGVDVWGQGTTVTVSSASTKGPSVFPLAPSSRSTSESTAALGCLVKDYFPEPVTVSWNSGALTSGVHTFPAVLQSSGLYSLSSVVTVPSSNFGTQTYTCNVDHKPSNTKVDKTVERKCCVECPPCPAPPVAGPSVFLFPPKPKDTLMISRTPEVTCVVVDVSHEDPEVQFNWYVDGMEVHNAKTKPREEQFNSTFRVVSVLTVVHQDWLNGKEYKCKVSNKGLPAPIEKTISKTKGQPREPQVYTLPPSREEMTKNQVSLTCLVKGFYPSDIAVEWESNGQPENNYKTTPPMLDSDGSFFLYSKLTVDKSRWQQGNVFSCSVMHEALHNHYTQKSLSLSPG
light: B1 light
notes: also called anti-human LAIR1 antibody mAb2
Turning to B2, the concentration giving a half-maximal response (EC50) with human LAIR1 on cells [2] amounted to 0.058 µg/mL. Moreover, the “Inhibition of NFAT Activity (% inhibition vs. no antibody), Jurkat-cyLAIR1+” value in test [3] came out at 59.6%. Further, in the test with human LAIR1 on cells [4], the “IC50 of antibody activity” value came out at 8.58 ng/mL and the “Inhibition of NFAT Activity (% inhibition vs. no antibody), Jurkat-hLAIR1+” value stood at 49.8%. In [6], binding was put at a Kd of 0.312 nM, the koff turned out to be 0.000341 s⁻¹ and the on-rate constant (kon) came out at 1.09e+06 M⁻¹ s⁻¹. The molecule further came in with an EC50 in the test with human LAIR1 on cells [7] of 0.0288 µg/mL. In addition, the “Inhibition of IL-6 response at 8 ng/mL (% inhibition vs. no antibody), primary human B cells” value with human LAIR1 on cells [8] was determined as 35.4%. Besides, the “Inhibition of IFN-γ response at 1 µg/mL (% inhibition vs. no antibody), primary human T cells” value with human LAIR1 on cells [9] worked out at 45.8%. Moreover, the EC50 in [10] was 0.0824 µg/mL. For the same molecule, the concentration for a half-maximal effect (EC50) with human LAIR1 on cells [11] worked out at 0.0414 µg/mL.

B3: mAb1 (antibody, human IgG2, kappa)
heavy: QVQLQESGPGLVKPSETLSLTCTAFGGSISGHYWSWIRQPAGKGLEWIGRIYPSGGTNKNPSLKSRVTMSVDTSKNQFSLKLSSVTAADTAVYYCVRDYWDDYYGMDVWGQGTTVTVSSASTKGPSVFPLAPSSRSTSESTAALGCLVKDYFPEPVTVSWNSGALTSGVHTFPAVLQSSGLYSLSSVVTVPSSNFGTQTYTCNVDHKPSNTKVDKTVERKCCVECPPCPAPPVAGPSVFLFPPKPKDTLMISRTPEVTCVVVDVSHEDPEVQFNWYVDGMEVHNAKTKPREEQFNSTFRVVSVLTVVHQDWLNGKEYKCKVSNKGLPAPIEKTISKTKGQPREPQVYTLPPSREEMTKNQVSLTCLVKGFYPSDIAVEWESNGQPENNYKTTPPMLDSDGSFFLYSKLTVDKSRWQQGNVFSCSVMHEALHNHYTQKSLSLSPG
light: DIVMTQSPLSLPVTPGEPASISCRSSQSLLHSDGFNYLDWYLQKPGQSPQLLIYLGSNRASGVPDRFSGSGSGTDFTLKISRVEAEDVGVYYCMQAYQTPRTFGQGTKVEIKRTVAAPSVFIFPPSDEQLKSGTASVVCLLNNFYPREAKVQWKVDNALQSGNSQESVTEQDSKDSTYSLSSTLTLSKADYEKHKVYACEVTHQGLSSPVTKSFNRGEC
notes: also called anti-human LAIR1 antibody mAb1
For the molecule B3, in the test with human LAIR1 on cells [2], the response was half-maximal at 0.0548 µg/mL (EC50). Also, the “Inhibition of NFAT Activity (% inhibition vs. no antibody), Jurkat-cyLAIR1+” value in test [3] came to 44.2%. For the same molecule, in the test with human LAIR1 on cells [4], the “IC50 of antibody activity” value was found to be 9.42 ng/mL and the “Inhibition of NFAT Activity (% inhibition vs. no antibody), Jurkat-hLAIR1+” value came out at 54.2%. Besides, in test [6], the dissociation constant (Kd) was 0.121 nM, the off-rate (koff) came out at 0.000174 s⁻¹ and the association rate constant (kon) was found to be 1.44e+06 M⁻¹ s⁻¹. Also, the concentration for a half-maximal effect (EC50) with human LAIR1 on cells [7] was found to be 0.037 µg/mL. For the same molecule, the “Inhibition of IL-6 response at 8 ng/mL (% inhibition vs. no antibody), primary human B cells” value with human LAIR1 on cells [8] came to 60.2%. In addition, the “Inhibition of IFN-γ response at 1 µg/mL (% inhibition vs. no antibody), primary human T cells” value with human LAIR1 on cells [9] was 35.7%. In addition, the EC50 in [10] was 0.0784 µg/mL. Further, the half-maximal effective concentration (EC50) with human LAIR1 on cells [11] came out at 0.0489 µg/mL.

For the origin of these results see patent US20240101670A1 (Eli Lilly, published 2024).
